From patent publication US20120316071A1 (published 2012) come the findings set out here.

The target in experiment [1] is T1, Recombinant Human DLL4 (R&D Systems Cat#1506-D4/CF) (human, UniProt Q9NR61 27-524).
T1 construct: bought recombinant protein; also called rHuman DLL4; delta-like protein 4
Description: 96-well plate ECL, DLL4 coated.

The target in experiment [2] is T2, rHuman CD44/Fc Chimera, CF (R&D Systems Cat#3660-CD) (human, UniProt P16070 21-220).
T2 construct: Bought recombinant Fc chimera; not shown: Fc of the bought R&D Systems chimera
Description: ECL Multispot (MSD), antigen spotted on plate, Fab 0.1 uM.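 Also: ratio compares each antigen's electrochemiluminescence to the blank within the same well, with a ratio of at least 4 counted as a binding Fab hit.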

In experiment [3] the target is T3, Recombinant Human DLL4 (R&D Systems Cat#1506-D4/CF) (human, UniProt Q9NR61 27-524).
T3 construct: Bought recombinant protein; also called delta-like protein 4; rHuman DLL4
The experiment is described as above.

Experiment [4] has as its target T4, rHuman HGF R/c-MET/Fc Chimera, CF (R&D Systems Cat#358-MT/CF) (human, UniProt P08581 25-932).
T4 construct: Bought recombinant Fc chimera; also called HGF R/Fc; not shown: Fc of the bought R&D Systems chimera
Described as above.

The target of experiment [5] is T5, rHuman P-Cadherin/Fc Chimera, CF (R&D Systems Cat#861-PC) (human, UniProt P22223 108-654).
T5 construct: Bought recombinant Fc chimera; not shown: Fc of the bought R&D Systems chimera
Described as above.

Experiment [6] addresses T6, rHuman EGF R/Fc Chimera, CF (R&D Systems Cat#344-ER) (human, UniProt P00533 25-645).
T6 construct: Bought recombinant Fc chimera; not shown: Fc of the bought R&D Systems chimera
The description is as above.

Experiment [7] has as its target T7, rHuman Erythropoietin R/Fc Chimera, CF (R&D Systems Cat#963-ER) (human, UniProt P19235 25-250).
T7 construct: Bought recombinant Fc chimera; also called EPO R; EPO R/Fc; not shown: Fc of the bought R&D Systems chimera
T7 sequence (looked up): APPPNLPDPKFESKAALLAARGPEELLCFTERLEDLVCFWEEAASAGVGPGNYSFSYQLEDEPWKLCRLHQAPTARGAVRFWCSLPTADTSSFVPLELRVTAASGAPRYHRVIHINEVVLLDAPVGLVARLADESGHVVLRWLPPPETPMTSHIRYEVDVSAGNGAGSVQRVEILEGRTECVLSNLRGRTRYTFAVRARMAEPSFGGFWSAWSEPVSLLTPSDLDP
Described as above.

The target of experiment [8] is T8, rHuman ErbB2/Fc Chimera, CF (R&D Systems Cat#1129-ER) (human, UniProt P04626 23-652).
T8 construct: Bought recombinant Fc chimera; not shown: Fc of the bought R&D Systems chimera
The experiment is described as above.

Experiment [9] deals with T9, rHuman Notch-1/Fc Chimera, CF (R&D Systems Cat#3647-TK) (human, UniProt P46531 19-526).
T9 construct: Bought recombinant Fc chimera; not shown: Fc of the bought R&D Systems chimera
The description is as above.

In experiment [10] the target is T10, rHuman IGF-1 sR, CF (R&D Systems Cat#391-GR) (human, UniProt P08069 31-932).
T10 construct: Bought recombinant soluble receptor; also called insulin-like growth factor-1 soluble receptor
The description is as above.

Experiment [11] deals with T2, rHuman CD44/Fc Chimera, CF (R&D Systems …). Description: ECL Multispot (MSD), antigen spotted on plate, Fab 0.01 uM.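 Also: electrochemiluminescence of each antigen spot divided by the blank of the same well, with a value of 4 or above scoring the Fab as a binding hit.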
Experiment [12] has as its target T3, Recombinant Human DLL4 (R&D Systems …). The description is as above.
Experiment [13] deals with T4, rHuman HGF R/c-MET/Fc Chimera, CF (R&D …). The description is as above.
Experiment [14] has as its target T5, rHuman P-Cadherin/Fc Chimera, CF (R&D …). Described as above.
In experiment [15] the target is T6, rHuman EGF R/Fc Chimera, CF (R&D …). The experiment is described as above.
Experiment [16] has as its target T7, rHuman Erythropoietin R/Fc Chimera, CF …. The experiment is described as above.
Experiment [17] has as its target T8, rHuman ErbB2/Fc Chimera, CF (R&D …). The experiment is described as above.
The target of experiment [18] is T9, rHuman Notch-1/Fc Chimera, CF (R&D …). Described as above.
For experiment [19], the target named is T10, rHuman IGF-1 sR, CF (R&D Systems …). The experiment is described as above.
Experiment [20] has as its target T11, rHuman Notch-1/Fc Chimera, CF (R&D Systems Cat#3647-TK) (human, UniProt P46531 19-526).
T11 construct: Bought reagent
The experiment can be described thus: ECL Multispot (MSD) assay; antigen spotted on plate, Fab in solution.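 Also: fab bound 1 h at 20 °C, detected by TAG-labelled antibody electrochemiluminescence, signal relative to each well's blank, ratio of 4 or more marks a hit.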

For experiment [21], the target named is T12, rHuman ErbB2/Fc Chimera, CF (R&D Systems Cat#1129-ER) (human, UniProt P04626 23-652).
T12 construct: Bought reagent; also called human epidermal growth factor 2 receptor
The description is as above.

In experiment [22] the target is T13, rHuman EGF R/Fc Chimera, CF (R&D Systems Cat#344-ER) (human, UniProt P00533 25-645).
T13 construct: Bought reagent; also called epidermal growth factor receptor
The experiment is described as above.

In experiment [23] the target is T14, rHuman CD44/Fc Chimera, CF (R&D Systems Cat#3660-CD) (human, UniProt P16070 21-220).
T14 construct: Bought reagent
The description is as above.

Experiment [24] addresses T15, rHuman HGF R/c-MET/Fc Chimera, CF (R&D Systems Cat#358-MT/CF) (human, UniProt P08581 25-932).
T15 construct: Bought reagent; also called HGF R/Fc; hepatocyte growth factor receptor
The description is as above.

Experiment [25] has as its target T16, rHuman IGF-1 sR, CF (R&D Systems Cat#391-GR) (human, UniProt P08069 31-932).
T16 construct: Bought soluble receptor; the column head 'IGF-1' means IGF-1 sR; also called insulin-like growth factor-1 soluble receptor
The experiment is described as above.

The target in experiment [26] is T17, rHuman P-Cadherin/Fc Chimera, CF (R&D Systems Cat#861-PC) (human, UniProt P22223 108-654).
T17 construct: Bought reagent
The experiment is described as above.

Experiment [27] deals with T18, rHuman Erythropoietin R/Fc Chimera, CF (R&D Systems Cat#963-ER) (human, UniProt P19235 25-250).
T18 construct: Bought reagent; also called EPO R; Epo R/Fc
T18 sequence (looked up): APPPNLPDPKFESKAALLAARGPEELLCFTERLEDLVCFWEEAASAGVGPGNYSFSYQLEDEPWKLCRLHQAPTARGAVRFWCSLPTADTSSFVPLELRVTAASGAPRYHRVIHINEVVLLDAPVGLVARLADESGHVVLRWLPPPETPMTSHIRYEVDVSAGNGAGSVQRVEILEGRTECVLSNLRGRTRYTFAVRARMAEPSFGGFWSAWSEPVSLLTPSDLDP
The description is as above.

B1: Fab VH1-46_IGHD6-6*01_IGHJ1*01 S103P & L6_IGKJ1*01 (Fab, V domains shown)
VH: QVQLVQSGAEVKKPGASVKVSCKASGYTFTSYYMHWVRQAPGQGLEWMGIINPSGGSTSYAQKFQGRVTMTRDTSTSTVYMELSSLRSEDTAVYYCAREEYSPSSAEYFQHWGQGTLVTVSS
VL: not shown
notes: Fab
B1: the “fold signal/noise ratio against the parent Fab” value in experiment [1] was approximately 3 fold.

B2: Fab VH1-46_IGHD6-6*01_IGHJ1*01 S103P & L6_IGKJ1*01 (Fab, V domains shown)
VH: QVQLVQSGAEVKKPGASVKVSCKASGYTFTSYYMHWVRQAPGQGLEWMGIINPSGGSTSYAQKFQGRVTMTRDTSTSTVYMELSSLRSEDTAVYYCAREEYSPSSAEYFQHWGQGTLVTVSS
VL: not shown
notes: Fab made in E. coli; The heavy chain variable region was cloned into Plasmid A (CH1, His6 and Flag tags) and the kappa light chain variable region into Plasmid C (kappa CL)
For B2, the ECL signal/noise ratio was determined as 2.1 in [2]; 139 in [3]; 1.9 in experiment [4]; 1.4 in experiment [5]; 2.3 in experiment [6]; 2.4 in experiment [7]. The ECL signal/noise ratio in [8] came out at 2.2; in experiment [9], 2.6; in [10] it was 2; in experiment [11], 1.5; in [12] it was 22.9; in [13] it was 1.2. The ECL signal/noise ratio came out at 1.1 in experiment [14]; 1.8 in experiment [15]; 1.8 in experiment [16]; 2 in experiment [17]; 1.8 in [18]; 1 in [19].

B3: Fab VH1-46_IGHD6-6*01_IGHJ1*01 S102A/S103P/S104F (APF) & L6_IGKJ1*01 R24G/Q27L (Fab, V domains shown)
VH: QVQLVQSGAEVKKPGASVKVSCKASGYTFTSYYMHWVRQAPGQGLEWMGIINPSGGSTSYAQKFQGRVTMTRDTSTSTVYMELSSLRSEDTAVYYCAREEYAPFSAEYFQHWGQGTLVTVSS
VL: EIVLTQSPATLSLSPGERATLSCGASLSVSSYLAWYQQKPGQAPRLLIYDASNRATGIPARFSGSGSGTDFTLTISSLEPEDFAVYYCQQRSNWPPWTFGQGTKVEIKR
notes: Double mutant that arose inadvertently in the PCR; Fab format as for the parent (CH1 with His6/Flag tags, kappa CL); also called APF / R24G/Q27L
For B3, the ECL signal was 177 in experiment [20]; 225 in experiment [21]; 252 in experiment [22]; 119 in experiment [23]; 185 in [24]; 49 in experiment [25]. In addition, the ECL signal in experiment [26] was 236; in [27], 191.

B4: Fab VH1-46_IGHD6-6*01_IGHJ1*01 S104F & L6_IGKJ1*01 (Fab, V domains shown)
VH: QVQLVQSGAEVKKPGASVKVSCKASGYTFTSYYMHWVRQAPGQGLEWMGIINPSGGSTSYAQKFQGRVTMTRDTSTSTVYMELSSLRSEDTAVYYCAREEYSSFSAEYFQHWGQGTLVTVSS
VL: not shown
notes: Fab
In the case of B4, in experiment [1], the “fold signal/noise ratio against the parent Fab” value is not below 4 fold.

B5: Fab VH1-46_IGHD6-6*01_IGHJ1*01 S104H & L6_IGKJ1*01 (Fab, V domains shown)
VH: QVQLVQSGAEVKKPGASVKVSCKASGYTFTSYYMHWVRQAPGQGLEWMGIINPSGGSTSYAQKFQGRVTMTRDTSTSTVYMELSSLRSEDTAVYYCAREEYSSHSAEYFQHWGQGTLVTVSS
VL: not shown
notes: as for B2
As for B5, the ECL signal/noise ratio in [2] was determined as 1.1; in experiment [3], 88.3; in experiment [4], 0.8; in experiment [5], 0.8; in [6] it was 0.6; in [7], 1. Further, the ECL signal/noise ratio in experiment [8] was found to be 1; in experiment [9] it was 0.8; in [10] it was 1; in [11], 1.4; in [12], 27; in [13], 1. For the same molecule, the ECL signal/noise ratio in experiment [14] was 1; in experiment [15] it was 1; in [16] it was 1.2; in [17], 1; in [18] it was 1.4; in experiment [19], 1.5.

B6: Fab VH1-46_IGHD6-6*01_IGHJ1*01 S103A & L6_IGKJ1*01 (Fab, V domains shown)
VH: QVQLVQSGAEVKKPGASVKVSCKASGYTFTSYYMHWVRQAPGQGLEWMGIINPSGGSTSYAQKFQGRVTMTRDTSTSTVYMELSSLRSEDTAVYYCAREEYSASSAEYFQHWGQGTLVTVSS
VL: not shown
notes: as for B2
Turning to B6, the ECL signal/noise ratio amounted to 1.4 in [2]; 31.6 in experiment [3]; 1 in experiment [4]; 1.4 in experiment [5]; 1.2 in experiment [6]; 1.4 in experiment [7]. For the same molecule, the ECL signal/noise ratio in experiment [8] is 1; in [9] it was 1.2; in experiment [10], 1.2; in experiment [11] it was 1.3; in [12], 4.5; in experiment [13], 1.2. Besides, the ECL signal/noise ratio came to 1.3 in experiment [14]; 1.3 in [15]; 1.1 in experiment [16]; 0.9 in experiment [17]; 1.4 in experiment [18]; 1.1 in experiment [19].
